{"source": "patent US9694061B2", "about": "“Fully human antibodies to high molecular weight-melanoma associated antigen and uses thereof” (University of Pittsburgh—Of the Commonwealth System of …, priority 2008, dated 2017)", "molecules": {"B1": {"name": "scFv C21: HMW-MAA-specific fully human scFv from semi-synthetic phage display library; VH SEQ ID NO: 5, VL SEQ ID NO: 6 (antibody, listed as Homo sapiens, V domains shown)", "VH": "QVQLVQSGAEVKKPGSSVKVSCKASGGTFSSYAISWVRQAPGQGLEWMGGIIPIFGTANYAQKFQGRVTITADESTSTAYMELSSLRSDDTAVYYCARALDPITFDSWGQGTLVTVSR", "VL": "SELTQDPAVSVALGQTVRITCQGDSLRSYYASWYQQKPGQAPVLVIYGKNNRPSGIPDRFSGSSSGNTASLTITGAQAEDEADYYCNSRDSSGNHVVFGGGTKLTVLGRS", "modifications": "scFv linker"}}, "key": {"HMW-MAA [1]": {"molecular_target": "T1, HMW-MAA (Homo sapiens, UniProt Q6UVK1)", "T1 sequence (Q6UVK1 30-2322)": "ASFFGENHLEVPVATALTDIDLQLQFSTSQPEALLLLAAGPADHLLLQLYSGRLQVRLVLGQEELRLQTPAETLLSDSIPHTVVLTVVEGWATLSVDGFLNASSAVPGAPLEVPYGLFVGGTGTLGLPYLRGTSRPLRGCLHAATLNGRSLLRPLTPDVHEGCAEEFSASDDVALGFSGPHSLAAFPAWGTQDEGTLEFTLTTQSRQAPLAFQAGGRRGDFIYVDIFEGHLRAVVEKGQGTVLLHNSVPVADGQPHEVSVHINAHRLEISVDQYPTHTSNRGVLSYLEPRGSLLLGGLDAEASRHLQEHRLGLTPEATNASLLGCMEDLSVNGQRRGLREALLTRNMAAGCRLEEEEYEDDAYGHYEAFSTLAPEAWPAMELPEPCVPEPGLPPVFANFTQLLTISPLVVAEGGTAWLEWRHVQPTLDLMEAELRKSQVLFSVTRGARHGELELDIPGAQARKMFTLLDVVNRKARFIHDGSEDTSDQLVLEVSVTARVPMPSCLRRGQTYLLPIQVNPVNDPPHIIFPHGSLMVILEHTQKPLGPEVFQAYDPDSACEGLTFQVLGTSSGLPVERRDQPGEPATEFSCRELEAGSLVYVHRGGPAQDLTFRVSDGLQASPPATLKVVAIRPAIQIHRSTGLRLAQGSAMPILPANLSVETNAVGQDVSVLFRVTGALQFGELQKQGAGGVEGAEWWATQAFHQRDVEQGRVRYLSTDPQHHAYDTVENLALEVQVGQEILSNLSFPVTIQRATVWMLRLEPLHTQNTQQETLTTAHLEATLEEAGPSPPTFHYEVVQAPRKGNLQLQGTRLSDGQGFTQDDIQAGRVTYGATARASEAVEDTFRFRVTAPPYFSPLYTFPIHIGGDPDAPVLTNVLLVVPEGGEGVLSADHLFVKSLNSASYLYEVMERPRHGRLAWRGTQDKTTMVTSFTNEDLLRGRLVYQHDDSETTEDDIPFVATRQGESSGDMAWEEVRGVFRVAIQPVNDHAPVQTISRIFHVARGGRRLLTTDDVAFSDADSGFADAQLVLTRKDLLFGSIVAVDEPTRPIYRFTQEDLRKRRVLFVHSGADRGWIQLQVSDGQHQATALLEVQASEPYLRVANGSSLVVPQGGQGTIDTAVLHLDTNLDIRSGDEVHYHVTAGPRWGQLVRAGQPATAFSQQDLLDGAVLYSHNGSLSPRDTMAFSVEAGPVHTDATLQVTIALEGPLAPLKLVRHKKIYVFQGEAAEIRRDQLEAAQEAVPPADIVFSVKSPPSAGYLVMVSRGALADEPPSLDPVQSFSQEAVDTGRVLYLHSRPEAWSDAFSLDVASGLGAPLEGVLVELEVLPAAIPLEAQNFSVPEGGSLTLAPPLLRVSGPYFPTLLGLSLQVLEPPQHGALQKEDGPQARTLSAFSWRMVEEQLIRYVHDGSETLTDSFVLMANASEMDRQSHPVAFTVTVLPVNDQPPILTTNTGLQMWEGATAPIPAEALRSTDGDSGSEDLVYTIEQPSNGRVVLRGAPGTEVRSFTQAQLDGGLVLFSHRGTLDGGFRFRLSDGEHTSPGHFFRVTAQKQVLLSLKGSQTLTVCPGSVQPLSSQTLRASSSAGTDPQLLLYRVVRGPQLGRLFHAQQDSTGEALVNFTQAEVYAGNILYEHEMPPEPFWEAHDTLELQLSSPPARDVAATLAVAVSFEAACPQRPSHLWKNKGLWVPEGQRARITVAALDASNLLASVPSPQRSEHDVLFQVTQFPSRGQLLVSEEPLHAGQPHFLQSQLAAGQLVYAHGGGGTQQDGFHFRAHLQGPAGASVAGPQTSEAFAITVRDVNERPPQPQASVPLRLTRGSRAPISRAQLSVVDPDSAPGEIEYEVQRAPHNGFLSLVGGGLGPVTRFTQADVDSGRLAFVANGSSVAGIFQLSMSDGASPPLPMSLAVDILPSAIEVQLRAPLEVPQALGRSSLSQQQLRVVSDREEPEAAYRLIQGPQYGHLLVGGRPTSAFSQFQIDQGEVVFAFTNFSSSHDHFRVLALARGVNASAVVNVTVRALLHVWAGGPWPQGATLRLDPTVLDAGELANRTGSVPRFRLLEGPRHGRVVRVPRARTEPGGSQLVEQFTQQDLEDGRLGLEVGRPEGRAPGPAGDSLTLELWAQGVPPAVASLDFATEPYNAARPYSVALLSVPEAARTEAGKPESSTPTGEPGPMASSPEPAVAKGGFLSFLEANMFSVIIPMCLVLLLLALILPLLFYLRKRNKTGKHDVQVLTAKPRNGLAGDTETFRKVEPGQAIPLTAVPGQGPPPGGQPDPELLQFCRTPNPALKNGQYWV", "test": "Flow cytometry of M14/HMW-MAA transfectants and parental M14 cells stained with scFv", "assay_type": "binding", "set-up": "from tissue; host or cells: human nevi, primary and metastatic melanoma lesions (frozen sections)", "method": "FIG. 2. Flow cytometry analysis of HMW-MAA^+ M14#5/HMW-MAA melanoma cells stained with scFv C21. M14#5/HMW-MAA transfectants and parental HMW-MAA^− M14#5 cells were incubated on ice with PP scFv C21 and mAb 9E10 (empty histogram) and control PP scFv 119 and mAb 9E10 (grey histogram) (top panel), with HMW-MAA-specific mouse mAb 763.74 (0.5 μg) (empty histogram) and control mAb MK2-23 (grey histogram) (middle panel) and with HLA class I antigen-specific mAb TP25.99 (empty histogram) and control mAb MK2-23 (grey histogram) (bottom panel). Binding of antibodies was detected using RPE-labeled F(ab′)2 fragments of goat anti-mouse Ig antibodies. Cells were analyzed with a FACScan™ flow cytometer. Results are expressed as fluorescence intensity.\nFlow cytometry analysis of melanoma cells stained with scFv antibodies or antibodies in immune sera was performed as described (Wang et al., J Immunol Methods 294:23-35, 2004, herein incorporated by reference). […] Following two washes, cells were fixed in 2% formaldehyde and analyzed with a FACScan™ flow cytometer (BD Biosciences, San Jose, Calif.). A total of 10,000 cells were counted using a forward and side scatter gate to eliminate aggregates and debris for each sample. Results are expressed as relative fluorescence intensity."}, "HMW-MAA [2]": {"molecular_target": "T1, HMW-MAA", "test": "ELISA of soluble scFv antibodies with cell lines", "assay_type": "binding", "set-up": "Cultured human melanoma cells Colo38, FO-1, SK-MEL-28 and Melur, all of which express HMW-MAA; endogenous in cells; host or cells: Colo38, FO-1, SK-MEL-28, Melur human melanoma cells", "method": "FIG. 1. Selective reactivity in ELISA of soluble scFv C21 with HMW-MAA^+ human cell lines. […] Binding of scFv fragments was detected using SA-HRP. Results are expressed as absorbance at 490 nm. Human anti-anti-id scFv #119 ( ? ) was used as a specificity control.\nThe ELISA to test the reactivity of soluble scFv antibodies with synthetic peptides and melanoma cells and of mouse immune sera with melanoma cells and with peptides was performed as described (Desai et al., Cancer Res 58:2417-2425, 1998; Desai et al., J Immunol 165:3275-3283, 2000; Matsui et al., J Immunol 139:2088-2095, 1987). Results are expressed as absorbance of optical density (O.D.) at 450 nm. The competition assay to map the antigenic determinant recognized by scFv C21 was performed by mixing biotinylated scFv C21 (0.25 μg/well) with two-fold dilutions of mouse mAb or scFv PP or by mixing biotinylated mAb (at an optimal amount giving absorbance, measured at 450 nm of 1.0) with two fold dilutions of scFv PP. […] Binding of biotinylated scFv antibodies and biotinylated mAb to target cells was measured by sequential incubation with SA-HRP and substrate as described (Noronha et al., J Immunol 161:2968-2976, 1998). The results are expressed as percent inhibition by mAb, scFv or peptide (competitor or inhibitor) of scFv or mAb binding to HMW-MAA^+ cells. […]"}}}
{"molecule": "B1", "values": [{"measurement": "Flow cytometry staining of HMW-MAA transfected M14 cells", "setting": "HMW-MAA [1]; M14 cells stably transfected with full length HMW-MAA", "result": "stained M14 cells which express HMW-MAA"}, {"measurement": "Flow cytometry staining of parental M14 cells", "setting": "HMW-MAA [1]; parental M14 cells, do not express HMW-MAA", "result": "did not stain the parental M14 cells"}, {"measurement": "Reactivity in ELISA with panel of human cell lines with differential HMW-MAA expression and rat neural cell line B49", "setting": "HMW-MAA [2]; FIG. 1", "result": "reacted only with the melanoma cell lines Colo38, FO-1, Melur and SK-MEL-28"}, {"measurement": "Reactivity in ELISA relative to the other selected clones", "setting": "HMW-MAA [2]; clones C3, C21, C29, C30", "result": "highest reactivity"}]}
